Sequences and labels used below:
B3: soluble recombinant human αvβ6 (receptor)
chain 1: FNLDVDSPAEYSGPEGSYFGFAVDFFVPSASSRMFLLVGAPKANTTQPGIVEGGQVLKCDWSSTRRCQPIEFDATGNRDYAKDDPLEFKSHQWFGASVRSKQDKILACAPLYHWRTEMKQEREPVGTCFLQDGTKTVEYAPCRSQDIDADGQGFCQGGFSIDFTKADRVLLGGPGSFYWQGQLISDQVAEIVSKYDPNVYSIKYNNQLATRTAQAIFDDSYLGYSVAVGDFNGDGIDDFVSGVPRAARTLGMVYIYDGKNMSSLYNFTGEQMAAYFGFSVAATDINGDDYADVFIGAPLFMDRGSDGKLQEVGQVSVSLQRASGDFQTTKLNGFEVFARFGSAIAPLGDLDQDGFNDIAIAAPYGGEDKKGIVYIFNGRSTGLNAVPSQILEGQWAARSMPPSFGYSMKGATDIDKNGYPDLIVGAFGVDRAILYRARPVITVNAGLEVYPSILNQDNKTCSLPGTALKVSCFNVRFCLKADGKGVLPRKLNFQVELLLDKLKQKGAIRRALFLYSRSPSHSKNMTISRGGLMQCEELIAYLRDESEFRDKLTPITIFMEYRLDYRTAADTTGLQPILNQFTPANISRQAHILLDCGEDNVCKPKLEVSVDSDQKKIYIGDDNPLTLIVKAQNQGEGAYEAELIVSIPLQADFIGVVRNNEALARLSCAFKTENQTRQVVCDLGNPMKAGTQLLAGLRFSVHQQSEMDTSVKFDLQIQSSNLFDKVSPVVSHKVDLAVLAAVEIRGVSSPDHVFLPIPNWEHKENPETEEDVGPVVQHIYELRNNGPSSFSKAMLHLQWPYKYNNNTLLYILHYDIDGPMNCTSDMEINPLRIKISSLQTTEKNDTVAGQGERDHLITKRDLALSEGDIHTLGCGVAQCLKIVCQVGRLDRGKSAILYVKSLLWTETFMNKENQNHSYSLKSSASFNVIEFPYKNLPIEDITNSTLVTTNVTWGIQPAPMPV
chain 2: GCALGGAETCEDCLLIGPQCAWCAQENFTHPSGVGERCDTPANLLAKGCQLNFIENPVSQVEILKNKPLSVGRQKNSSDIVQIAPQSLILKLRPGGAQTLQVHVRQTEDYPVDLYYLMDLSASMDDDLNTIKELGSRLSKEMSKLTSNFRLGFGSFVEKPVSPFVKTTPEEIANPCSSIPYFCLPTFGFKHILPLTNDAERFNEIVKNQKISANIDTPEGGFDAIMQAAVCKEKIGWRNDSLHLLVFVSDADSHFGMDSKLAGIVIPNDGLCHLDSKNEYSMSTVLEYPTIGQLIDKLVQNNVLLIFAVTQEQVHLYENYAKLIPGATVGLLQKDSGNILQLIISAYEELRSEVELEVLGDTEGLNLSFTAICNNGTLFQHQKKCSHMKVGDTASFSVTVNIPHCERRSRHIIIKPVGLGDALELLVSPECNCDCQKEVEVNSSKCHHGNGSFQCGVCACHPGHMGPRCECGEDMLSTDSCKEAPDHPSCSGRGDCYCGQCICHLSPYGNIYGPYCQCDNFSCVRHKGLLCGGNGDCDCGECVCRSGWTGEYCNCTTSTDSCVSEDGVLCSGRGDCVCGKCVCTNPGASGPTCERCPTCGDPCNSKRSCIECHLSAAGQAREECVDKCKLAGATISEEEDFSKDGSVSCSLQGENECLITFLITTDNEGKTIIHSINEKDCPKPPNIP
notes: extracellular domain; also called hsαvβ6; soluble human truncated αvβ6

Assay [1] deals with T1, αvβ6 on β6-transfected FDC-P1 cells (murine, UniProt P43406 31-1044; Q9Z0T9 22-787).
T1 construct: whole, on cells; αv is that of the murine host cell line; also called β6-FDC-P1 cells; β6-transfected murine cells
T1 sequence (P43406 31-1044, chain 1 of 2): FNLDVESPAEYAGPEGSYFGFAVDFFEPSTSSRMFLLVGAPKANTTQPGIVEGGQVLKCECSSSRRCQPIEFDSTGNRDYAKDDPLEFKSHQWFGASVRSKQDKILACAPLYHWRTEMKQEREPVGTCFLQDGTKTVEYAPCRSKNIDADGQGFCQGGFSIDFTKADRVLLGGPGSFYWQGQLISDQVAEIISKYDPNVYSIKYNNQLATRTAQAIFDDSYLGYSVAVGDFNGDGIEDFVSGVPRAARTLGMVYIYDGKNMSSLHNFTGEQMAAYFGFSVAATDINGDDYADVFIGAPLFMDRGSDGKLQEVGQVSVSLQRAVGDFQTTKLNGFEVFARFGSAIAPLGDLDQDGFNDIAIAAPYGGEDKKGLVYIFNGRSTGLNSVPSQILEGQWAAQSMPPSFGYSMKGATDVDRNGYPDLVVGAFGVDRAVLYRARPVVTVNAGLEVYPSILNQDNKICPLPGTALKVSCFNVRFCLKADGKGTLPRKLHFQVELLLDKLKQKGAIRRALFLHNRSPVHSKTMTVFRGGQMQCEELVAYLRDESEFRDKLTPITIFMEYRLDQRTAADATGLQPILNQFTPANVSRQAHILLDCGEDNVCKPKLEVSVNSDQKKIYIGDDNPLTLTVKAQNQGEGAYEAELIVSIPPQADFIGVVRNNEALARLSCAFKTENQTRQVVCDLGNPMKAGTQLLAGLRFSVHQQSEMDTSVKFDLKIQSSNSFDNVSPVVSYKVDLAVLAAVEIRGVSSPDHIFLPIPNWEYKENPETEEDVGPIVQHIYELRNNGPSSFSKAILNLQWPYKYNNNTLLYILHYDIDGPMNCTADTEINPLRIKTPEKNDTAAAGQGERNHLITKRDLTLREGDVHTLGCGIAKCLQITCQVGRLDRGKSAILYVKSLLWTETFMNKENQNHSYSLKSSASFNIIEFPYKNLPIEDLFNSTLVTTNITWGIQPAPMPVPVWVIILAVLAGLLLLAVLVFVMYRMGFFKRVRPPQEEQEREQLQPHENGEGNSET
T1 sequence (Q9Z0T9 22-787, chain 2 of 2): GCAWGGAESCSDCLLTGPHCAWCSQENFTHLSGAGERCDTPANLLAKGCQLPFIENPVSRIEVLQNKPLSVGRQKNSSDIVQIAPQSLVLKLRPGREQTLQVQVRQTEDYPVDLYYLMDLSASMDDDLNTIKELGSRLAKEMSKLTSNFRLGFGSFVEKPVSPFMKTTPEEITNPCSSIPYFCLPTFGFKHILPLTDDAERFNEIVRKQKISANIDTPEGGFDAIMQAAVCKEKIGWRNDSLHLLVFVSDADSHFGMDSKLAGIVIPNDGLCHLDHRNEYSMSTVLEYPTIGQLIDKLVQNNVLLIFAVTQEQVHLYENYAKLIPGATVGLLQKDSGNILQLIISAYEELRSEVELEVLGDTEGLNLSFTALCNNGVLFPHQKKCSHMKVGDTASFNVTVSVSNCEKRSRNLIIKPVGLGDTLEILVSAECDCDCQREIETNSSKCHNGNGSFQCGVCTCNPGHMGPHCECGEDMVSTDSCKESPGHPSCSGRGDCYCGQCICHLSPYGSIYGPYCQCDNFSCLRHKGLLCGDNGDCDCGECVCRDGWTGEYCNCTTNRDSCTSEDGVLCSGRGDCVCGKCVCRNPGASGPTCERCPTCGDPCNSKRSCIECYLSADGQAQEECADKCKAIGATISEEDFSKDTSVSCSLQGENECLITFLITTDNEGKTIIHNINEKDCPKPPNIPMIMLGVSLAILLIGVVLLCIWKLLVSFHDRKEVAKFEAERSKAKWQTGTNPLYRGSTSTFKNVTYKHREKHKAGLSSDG
Kind of assay: β6-FDC-P1 cells to coated LAP, blocking. How it is done:
A 96-well microtiter plate was coated with 50 μl/well of 0.5 μg/ml recombinant human LAP (R&D Systems) diluted in 50 mM sodium bicarbonate, pH 9.2 at 4° C. overnight. The plate was washed twice with PBS (100 μl/well) and blocked with 1% BSA in PBS (100 μl/well) for 1 hr at 25° C. The plate was washed twice with 100 μl/well of assay buffer (TBS complete plus 1 mM CaCl₂ and 1 mM MgCl₂). Next, to the individual wells of the plate were added 25 μl of a hybridoma supernatant (or a purified antibody) and 25 μl of β₆-FDC-P1 cells (5×10⁶ cells/ml, labeled with Calcein AM as described above). The plate was incubated at 25° C. for 1 hr, and then washed 4-6 times with the assay buffer (100 μl/well). The fluorescence emitted from cells captured on the plate was recorded. Percentage binding was determined by comparing the fluorescence signal prior to the final wash step (i.e., total cells added) to that after washing (i.e., bound cells).

The target of assay [2] is B3. In words: biotin-hsαvβ6 to coated LAP, blocking. On the procedure: 96-well microtiter plates (Corning COSTAR EASY-WASH) were coated with 0.3 μg/ml recombinant human LAP (R&D Systems, Cat. # 246-LP) diluted in PBS (50 μl/well) at 4° C. overnight. After the coating solution was removed, the plates were blocked with 180 μl/well of 3% BSA/TBS at 25° C. for 1 hr. […] After washing the LAP-coated plate with wash buffer (0.1% TWEEN-20 in PBS) 4 times in an automated plate washer, 100 μl of the antibody-αᵥβ₆ mixture was transferred to the plate, and incubated for 1 hr at 25° C. The plate was washed as above and incubated with 50 μl/well of a 1:1000 dilution of extravidin-horseradish peroxidase conjugate (Sigma) in TBS (1 mg/ml BSA) for 1 hr at 25° C. Bound protein was detected using the TMB substrate.
The purified antibodies were next evaluated for their ability to inhibit the αᵥβ₆-LAP interaction.

Assay [3] concerns the target B3. Kind of assay: ELISA, coated hsαvβ6. On the procedure: A 96-well microtiter plate (Corning COSTAR EASY-WASH) was coated with 50 μl/well of 5 μg/ml hsαᵥβ₆ at 4° C. overnight. The plate was washed with wash buffer (0.1% TWEEN-20 in PBS) four times in an automated plate washer. Then 180 μl/well of 3% BSA in TBS was added and incubated for 1 hr at 25° C. to block nonspecific binding. The plate was washed as above, and dilutions of either hybridoma supernatant (for screening assays) or purified antibody (for characterization) in TBS containing 1 mg/ml BSA, 1 mM CaCl₂, and 1 mM MgCl₂ were added (50 μl/well). The plate was incubated for 1 hr at 25° C., washed, and then incubated for 1 hr with 50 μl/well of […] goat anti-mouse IgG+A+M antibody (Cappel). Bound antibody was detected using 3,3′,5,5′-tetramethylbenzidine (TMB). Binding was indicated by the absorbency measured at 450 nm.

Assay [4] deals with αvβ6 on β6-transfected SW480 cells (UniProt P06756 31-1048; P18564 22-788). In words: cell-based or functional assay.
The target in another assay is T2, 6.3G9.
T2 construct: ATCC PTA-3649; also called biotinylated 6.3G9
In words: KinExA: soluble αvβ6 titrated against 1e-10 M antibody, free antibody caught on integrin-coated beads. How it is done: A series of dilutions of the soluble integrin (1×10⁻⁸ M to 2.4×10⁻¹² M) were incubated with 1×10⁻¹⁰ M of the antibody for 3 h. These samples were then passed through polymethylmethacrylate beads coated with the integrin using a KinExA instrument (Sapidyne Instruments, Inc., Boise, Id.). In the case of 6.8G6, 11 mM CaCl₂ and […] MgCl₂ were included in the incubation and assay buffers. The amounts of bound and free antibody were determined using a Cy5-labeled anti-mouse secondary antibody. Quadratic curve fitting was performed using the KinExA software to attain a dissociation constant (Kd) for each interaction. […] Thus, both of these antibodies had very high affinities for αᵥβ₆.
In general terms: Kinetic exclusion samples the free partner from a solution-phase mixture.

Here are results for 3 molecules from patent publication US20090186036A1 (Biogen, published 2009).

B1: 7.1G10 (antibody, V domains shown)
VH: QVQLQQSGPELVKPGASVRISCKASGYTFTSYYIHWVKQRPGQGLEWIGWLYPGKINTRYNEKFKGKATLIADKSSSTAYMQLSSLTSEDSAVYFCARHVLNGNFDYWGQGTTLTVSS
VL: DIQMTQSPSSLSASLGERVSLTCRASQEISGYLSWLQQKPDGSIKRLIYAASTLDSGVPKRFSGSRSGADYSLTISSLESEDFADYYCLQYATYPYTFGGGTKLEIK
notes: ATCC PTA-3898
Broadly, the IC50 is the concentration that gives 50% inhibition. As a reminder, the EC50 is the concentration that produces a half-maximal response. B1: the IC50 in assay [1] was 0.03 µg/mL; in assay [2], 0.113 µg/mL. In assay [3], the concentration giving a half-maximal response (EC50) amounted to 0.0042 µg/mL. Besides, in assay [4], the “PAI-1 luciferase IC50” value was 0.25 µg/mL.

B2: 7.7G5 (antibody, V domains shown)
VH: EVQLQQSGPELVKPGASVKISCKASGYSFTGYFMNWVMQSHGKSLEWIGRIKPYNGDNFYNQKFMGKATLTVDKSSSTVHMELRSLASEDSAVYYCARDRYGTYGMDYWGQGTSVTVSS
VL: QIVLTQSPAIMSASPGEKVTMTCSASSSVSYMHWYQQKSGTSPKRWIYDTSKLASGVPTRFSGSGSGTSYSLTINSMEAEDAATYYCQQWSSHPPTFGAGTKLELK
notes: ATCC PTA-3899
For B2, the IC50 in assay [1] is 0.051 µg/mL; in assay [2], 0.155 µg/mL. In addition, the 50% effective concentration (EC50) in assay [3] was found to be 0.013 µg/mL. The “PAI-1 luciferase IC50” value in assay [4] amounted to 0.7 µg/mL.

B3: in the assay with 6.3G9, the “IC50 (read off the curve)” value is roughly 0.05 nM.
